Test results from patent publication US20140271457A1 (AbbVie / Abbott, published 2014).
Numbering of substitutions follows the chain as printed.

B1: DVD2818 (bispecific antibody, IgG1)
VH: EVQLVESGGGLVQPGGSLRLSCAASGFSLTNNNVNWVRQAPGKGLEWVGGVWAGGATDYNSALKSRFTISRDNSKNTAYLQMNSLRAEDTAVYYCARDGGYSSSTLYAMDAWGQGTLVTVSSGGGGSGGGGSEVQLVQSGAEVKKPGASVKVSCKASGYTFANYGIIWVRQAPGQGLEWMGWINTYTGKPTYAQKFQGRVTMTTDTSTSTAYMELSSLRSEDTAVYYCARKLFTTMDVTDNAMDYWGQGTTVTVSS
VL: DIQMTQSPSSLSASVGDRVTITCRASEDIYNALAWYQQKPGKAPKLLIYNTDTLHTGVPSRFSGSGSGTDYTLTISSLQPEDFATYFCQHYFHYPRTFGQGTKVEIKRGGSGGGGSGDIQMTQSPSSLSASVGDRVTITCRASQDISQYLNWYQQKPGKAPKLLIYYTSRLQSGVPSRFSGSGSGTDFTLTISSLQPEDFATYFCQQGNTWPPTFGQGTKLEIKR
B2: DVD2819 (bispecific antibody, IgG1)
VH: EVQLVESGGGLVQPGGSLRLSCAASGFSLTNNNVNWVRQAPGKGLEWVGGVWAGGATDYNSALKSRFTISRDNSKNTAYLQMNSLRAEDTAVYYCARDGGYSSSTLYAMDAWGQGTLVTVSSASTKGPEVQLVQSGAEVKKPGASVKVSCKASGYTFANYGIIWVRQAPGQGLEWMGWINTYTGKPTYAQKFQGRVTMTTDTSTSTAYMELSSLRSEDTAVYYCARKLFTTMDVTDNAMDYWGQGTTVTVSS
VL: DIQMTQSPSSLSASVGDRVTITCRASEDIYNALAWYQQKPGKAPKLLIYNTDTLHTGVPSRFSGSGSGTDYTLTISSLQPEDFATYFCQHYFHYPRTFGQGTKVEIKRTVAAPDIQMTQSPSSLSASVGDRVTITCRASQDISQYLNWYQQKPGKAPKLLIYYTSRLQSGVPSRFSGSGSGTDFTLTISSLQPEDFATYFCQQGNTWPPTFGQGTKLEIKR
B3: DVD2822 (bispecific antibody, IgG1)
VH: EVQLVESGGGLVQPGGSLRLSCAASGFSLTNNNVNWVRQAPGKGLEWVGGVWAGGATDYNSALKSRFTISRDNSKNTAYLQMNSLRAEDTAVYYCARDGGYSSSTLYAMDAWGQGTLVTVSSASTKGPSVFPLAPEVQLVQSGAEVKKPGASVKVSCKASGYTFANYGIIWVRQAPGQGLEWMGWINTYTGKPTYAQKFQGRVTMTTDTSTSTAYMELSSLRSEDTAVYYCARKLFTTMDVTDNAMDYWGQGTTVTVSS
VL: B2 VL
B4: DVD2821 (bispecific antibody, IgG1)
VH: B2 VH
VL: DIQMTQSPSSLSASVGDRVTITCRASEDIYNALAWYQQKPGKAPKLLIYNTDTLHTGVPSRFSGSGSGTDYTLTISSLQPEDFATYFCQHYFHYPRTFGQGTKVEIKRTVAAPSVFIFPPDIQMTQSPSSLSASVGDRVTITCRASQDISQYLNWYQQKPGKAPKLLIYYTSRLQSGVPSRFSGSGSGTDFTLTISSLQPEDFATYFCQQGNTWPPTFGQGTKLEIKR
B5: DVD2813 (bispecific antibody, IgG1)
VH: EVQLVQSGAEVKKPGASVKVSCKASGYTFANYGIIWVRQAPGQGLEWMGWINTYTGKPTYAQKFQGRVTMTTDTSTSTAYMELSSLRSEDTAVYYCARKLFTTMDVTDNAMDYWGQGTTVTVSSGGGGSGGGGSEVQLVESGGGLVQPGGSLRLSCAASGFSLTNNNVNWVRQAPGKGLEWVGGVWAGGATDYNSALKSRFTISRDNSKNTAYLQMNSLRAEDTAVYYCARDGGYSSSTLYAMDAWGQGTLVTVSS
VL: DIQMTQSPSSLSASVGDRVTITCRASQDISQYLNWYQQKPGKAPKLLIYYTSRLQSGVPSRFSGSGSGTDFTLTISSLQPEDFATYFCQQGNTWPPTFGQGTKLEIKRGGSGGGGSGDIQMTQSPSSLSASVGDRVTITCRASEDIYNALAWYQQKPGKAPKLLIYNTDTLHTGVPSRFSGSGSGTDYTLTISSLQPEDFATYFCQHYFHYPRTFGQGTKVEIKR
B6: DVD3038 (bispecific antibody, IgG1)
VH: B5 VH with A30N, T102N, M104V, D105A
VL: B5 VL with S30E, Q31N, W94Q
B7: DVD2814 (bispecific antibody, IgG1)
VH: EVQLVQSGAEVKKPGASVKVSCKASGYTFANYGIIWVRQAPGQGLEWMGWINTYTGKPTYAQKFQGRVTMTTDTSTSTAYMELSSLRSEDTAVYYCARKLFTTMDVTDNAMDYWGQGTTVTVSSASTKGPEVQLVESGGGLVQPGGSLRLSCAASGFSLTNNNVNWVRQAPGKGLEWVGGVWAGGATDYNSALKSRFTISRDNSKNTAYLQMNSLRAEDTAVYYCARDGGYSSSTLYAMDAWGQGTLVTVSS
VL: DIQMTQSPSSLSASVGDRVTITCRASQDISQYLNWYQQKPGKAPKLLIYYTSRLQSGVPSRFSGSGSGTDFTLTISSLQPEDFATYFCQQGNTWPPTFGQGTKLEIKRTVAAPDIQMTQSPSSLSASVGDRVTITCRASEDIYNALAWYQQKPGKAPKLLIYNTDTLHTGVPSRFSGSGSGTDYTLTISSLQPEDFATYFCQHYFHYPRTFGQGTKVEIKR
B8: DVD2816 (bispecific antibody, IgG1)
VH: B7 VH
VL: DIQMTQSPSSLSASVGDRVTITCRASQDISQYLNWYQQKPGKAPKLLIYYTSRLQSGVPSRFSGSGSGTDFTLTISSLQPEDFATYFCQQGNTWPPTFGQGTKLEIKRTVAAPSVFIFPPDIQMTQSPSSLSASVGDRVTITCRASEDIYNALAWYQQKPGKAPKLLIYNTDTLHTGVPSRFSGSGSGTDYTLTISSLQPEDFATYFCQHYFHYPRTFGQGTKVEIKR
B9: DVD3039 (bispecific antibody, IgG1)
VH: B7 VH with A30N, T102N, M104V, D105A
VL: B7 VL with S30E, Q31N, W94Q
B10: DVD2817 (bispecific antibody, IgG1)
VH: EVQLVQSGAEVKKPGASVKVSCKASGYTFANYGIIWVRQAPGQGLEWMGWINTYTGKPTYAQKFQGRVTMTTDTSTSTAYMELSSLRSEDTAVYYCARKLFTTMDVTDNAMDYWGQGTTVTVSSASTKGPSVFPLAPEVQLVESGGGLVQPGGSLRLSCAASGFSLTNNNVNWVRQAPGKGLEWVGGVWAGGATDYNSALKSRFTISRDNSKNTAYLQMNSLRAEDTAVYYCARDGGYSSSTLYAMDAWGQGTLVTVSS
VL: B7 VL
B11: DVD2771 (bispecific antibody, IgG1)
VH: EVQLVESGGGLVQPGGSLRLSCAASGFSLTNNNVNWVRQAPGKGLEWVGGVWAGGATDYNSALKSRFTISRDNSKNTAYLQMNSLRAEDTAVYYCARDGGYSSSTLYAMDAWGQGTLVTVSSASTKGPEVQLVESGGGLVQPGGSLRLSCAASGFTFSNYGVEWVRQAPGKGLEWVSGIWADGSTHYADTVKSRFTISRDNSKNTLYLQMNSLRAEDTAVYYCAREWQHGPVAYWGQGTLVTVSS
VL: DIQMTQSPSSLSASVGDRVTITCRASEDIYNALAWYQQKPGKAPKLLIYNTDTLHTGVPSRFSGSGSGTDYTLTISSLQPEDFATYFCQHYFHYPRTFGQGTKVEIKRTVAAPSVFIFPPDIQMTQSPSSLSASVGDRVTITCKASQLVSSAVAWYQQKPGKAPKLLIYWASTLHTGVPSRFSGSGSGTDFTLTISSLQPEDFATYYCQQHYRTPFTFGQGTKLEIKR
B12: DVD2772 (bispecific antibody, IgG1)
VH: EVQLVESGGGLVQPGGSLRLSCAASGFSLTNNNVNWVRQAPGKGLEWVGGVWAGGATDYNSALKSRFTISRDNSKNTAYLQMNSLRAEDTAVYYCARDGGYSSSTLYAMDAWGQGTLVTVSSASTKGPSVFPLAPEVQLVESGGGLVQPGGSLRLSCAASGFTFSNYGVEWVRQAPGKGLEWVSGIWADGSTHYADTVKSRFTISRDNSKNTLYLQMNSLRAEDTAVYYCAREWQHGPVAYWGQGTLVTVSS
VL: DIQMTQSPSSLSASVGDRVTITCRASEDIYNALAWYQQKPGKAPKLLIYNTDTLHTGVPSRFSGSGSGTDYTLTISSLQPEDFATYFCQHYFHYPRTFGQGTKVEIKRTVAAPDIQMTQSPSSLSASVGDRVTITCKASQLVSSAVAWYQQKPGKAPKLLIYWASTLHTGVPSRFSGSGSGTDFTLTISSLQPEDFATYYCQQHYRTPFTFGQGTKLEIKR

target: Recombinant Human TNF-α/TNFSF1A (human, UniProt P01375 77-233); test: cell-based or functional assay
Sequence (P01375 77-233 limits assumed): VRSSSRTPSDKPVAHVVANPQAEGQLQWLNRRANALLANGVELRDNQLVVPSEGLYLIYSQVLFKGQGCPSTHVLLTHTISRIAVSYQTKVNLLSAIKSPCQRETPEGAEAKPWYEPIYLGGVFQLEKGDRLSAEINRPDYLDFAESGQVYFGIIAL

Binder	C-Terminal VD huTNFα Neutralization Assay IC50	N-Terminal VD huTNFα Neutralization Assay IC50
B1	72 pM	
B2	279 pM	
B3	107 pM	
B4	90 pM	
B5		16 pM
B6		2 pM
B7		12 pM
B8		9 pM
B9		12 pM
B10		13 pM
B11	60 pM	
B12	128 pM	

target: Recombinant Human β-NGF (human, UniProt P01138 122-241); test: cell-based or functional assay
Sequence (P01138 122-241 limits assumed): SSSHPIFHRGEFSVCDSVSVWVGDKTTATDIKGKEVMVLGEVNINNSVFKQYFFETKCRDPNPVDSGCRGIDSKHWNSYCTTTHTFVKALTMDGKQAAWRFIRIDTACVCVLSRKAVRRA

Binder	N-Terminal VD NGF Neutralization Assay IC50	C-Terminal VD NGF Neutralization Assay IC50
B1	3 pM	
B2	6 pM	
B3	3 pM	
B4	11 pM	
B5		7460 pM
B6		93 pM
B7		19 pM
B8		2890 pM
B9		88 pM
B10		1280 pM
B11	37 pM	
B12	40 pM	
